The source of these data is patent publication US20170022292A1 (Novartis, published 2017).

The target in experiment [1] is T1, human FXI activated (human Factor XIa, full length) (human, UniProt P03951 19-387; P03951 388-625). Put plainly: cell-based or functional assay.
For experiment [2], the target named is T2, human FXI zymogen (human, UniProt P03951 19-625). Put plainly: cell-based or functional assay.
The target in experiment [3] is T1, human FXI activated (human Factor XIa, …). Put plainly: solution equilibrium titration (SET), MSD ECL read-out, 1:2 fit, n=3; apparent KD (avidity possible).
The target in experiment [4] is T2, human FXI zymogen. Described as above.
The target in experiment [5] is T3, cynomolgus monkey FXI zymogen (cynomolgus monkey, UniProt A0A2K5VVW4 19-624).
T3 construct: also called free FXI (FXIf) in cynomolgus plasma
Nature of the experiment: solution equilibrium titration (SET); apparent KD, N=2; cynomolgus monkey FXI zymogen; apparent KD, SET, N=2.

For experiment [6], the target named is T4, activated cynomolgus monkey FXI (cynomolgus monkey, UniProt A0A2K5VVW4 19-387; A0A2K5VVW4 388-625).
T4 construct: also called cynomolgus monkey FXIa; cynomolgus monkey FXI (active form)
Nature of the experiment: solution equilibrium titration (SET); apparent KD, N=2; activated cynomolgus monkey FXI; apparent KD, SET, N=2.

Experiment [7] deals with T5, human FXI catalytic domain (residues 388-625, Swissprot P03951) (human, UniProt P03951 388-625).
T5 construct: it is treated here as the same molecule; also called FXI CD; FXIa CD
Put plainly: SPR (BIACORE T200), IgG captured by goat anti-human IgG-Fc, FXI catalytic domain 0-200 nM as analyte, 25 C, 1:1 model, n=2. In general terms: Surface plasmon resonance follows binding to a sensor surface in real time, without labels.

Experiment [8] has as its target T2, human FXI zymogen. Nature of the experiment: SET.
Experiment [9] concerns the target T1, human FXI activated (human Factor XIa, …). Nature of the experiment: SET KD compared with SPR KD for the FXI catalytic domain.
Experiment [10] deals with T2, human FXI zymogen. Described as above.
For experiment [11], the target named is T1, human FXI activated (human Factor XIa, …). Nature of the experiment: solution equilibrium titration (SET), MSD ECL read-out, 1:1 fit, n=3.
Experiment [12] has as its target T2, human FXI zymogen. The description is as above.
In experiment [13] the target is T5, human FXI catalytic domain (residues …). Nature of the experiment: SPR (BIACORE T200), Fab amine-coupled on CM5 chip, FXI catalytic domain 0-200 nM as analyte, 25 C, 1:1 model, n=3.

T2 sequence (P03951 19-625 C226S limits assumed): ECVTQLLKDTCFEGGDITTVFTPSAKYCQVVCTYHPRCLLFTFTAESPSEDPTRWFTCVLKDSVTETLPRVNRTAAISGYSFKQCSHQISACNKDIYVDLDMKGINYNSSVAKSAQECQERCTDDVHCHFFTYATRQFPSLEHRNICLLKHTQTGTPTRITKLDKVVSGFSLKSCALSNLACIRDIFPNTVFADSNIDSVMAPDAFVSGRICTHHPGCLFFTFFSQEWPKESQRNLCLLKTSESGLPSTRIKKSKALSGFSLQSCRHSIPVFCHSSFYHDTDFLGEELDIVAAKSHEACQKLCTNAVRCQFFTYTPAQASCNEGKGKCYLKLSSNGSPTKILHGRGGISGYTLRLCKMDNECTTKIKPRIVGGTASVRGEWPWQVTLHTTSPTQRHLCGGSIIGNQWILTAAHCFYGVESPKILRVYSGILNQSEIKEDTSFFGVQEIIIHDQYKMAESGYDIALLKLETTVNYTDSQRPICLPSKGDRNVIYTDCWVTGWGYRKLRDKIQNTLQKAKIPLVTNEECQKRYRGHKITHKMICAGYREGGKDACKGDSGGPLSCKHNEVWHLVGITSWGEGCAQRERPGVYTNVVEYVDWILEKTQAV
T5 sequence (P03951 388-625 limits assumed, form in doubt, one chain of several): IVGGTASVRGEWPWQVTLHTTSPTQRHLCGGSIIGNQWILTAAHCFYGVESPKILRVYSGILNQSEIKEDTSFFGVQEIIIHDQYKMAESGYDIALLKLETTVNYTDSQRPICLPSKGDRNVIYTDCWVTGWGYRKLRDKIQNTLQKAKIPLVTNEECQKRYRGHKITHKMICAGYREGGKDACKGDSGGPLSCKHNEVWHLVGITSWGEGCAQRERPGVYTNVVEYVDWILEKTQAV
T1 sequence (P03951 19-387 C226S limits assumed, form in doubt, chain 1 of 2): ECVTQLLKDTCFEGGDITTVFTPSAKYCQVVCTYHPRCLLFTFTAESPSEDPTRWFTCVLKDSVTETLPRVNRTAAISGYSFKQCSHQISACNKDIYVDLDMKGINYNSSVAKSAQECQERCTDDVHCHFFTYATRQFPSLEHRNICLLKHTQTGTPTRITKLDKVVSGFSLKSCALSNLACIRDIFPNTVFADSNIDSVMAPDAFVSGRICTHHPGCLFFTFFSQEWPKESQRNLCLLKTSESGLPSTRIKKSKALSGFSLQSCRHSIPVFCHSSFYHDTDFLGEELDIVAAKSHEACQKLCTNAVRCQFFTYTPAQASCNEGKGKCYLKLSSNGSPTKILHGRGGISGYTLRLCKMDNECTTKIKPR
T1 sequence (P03951 388-625 limits assumed, form in doubt, chain 2 of 2): as the sequence (P03951 388-625 limits assumed, form in doubt, one chain of several) above
T4 sequence (chain, as listed by the source, form in doubt, chain 1 of 2): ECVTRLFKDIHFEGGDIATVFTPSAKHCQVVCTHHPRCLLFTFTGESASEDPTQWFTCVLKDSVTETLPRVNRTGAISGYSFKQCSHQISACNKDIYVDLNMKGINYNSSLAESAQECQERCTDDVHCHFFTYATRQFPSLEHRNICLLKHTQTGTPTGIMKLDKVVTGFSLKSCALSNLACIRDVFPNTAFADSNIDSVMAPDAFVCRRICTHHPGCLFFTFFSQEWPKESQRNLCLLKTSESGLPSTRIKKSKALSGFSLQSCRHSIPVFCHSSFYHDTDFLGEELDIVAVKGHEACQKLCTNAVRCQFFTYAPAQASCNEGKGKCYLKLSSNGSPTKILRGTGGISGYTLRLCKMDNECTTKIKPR
T4 sequence (chain, as listed by the source, form in doubt, chain 2 of 2): as the sequence (P03951 388-625 limits assumed, form in doubt, one chain of several) above, with S59I, E156D, V225L, V238A counted along it
T3 sequence (A0A2K5VVW4 entry or part of it): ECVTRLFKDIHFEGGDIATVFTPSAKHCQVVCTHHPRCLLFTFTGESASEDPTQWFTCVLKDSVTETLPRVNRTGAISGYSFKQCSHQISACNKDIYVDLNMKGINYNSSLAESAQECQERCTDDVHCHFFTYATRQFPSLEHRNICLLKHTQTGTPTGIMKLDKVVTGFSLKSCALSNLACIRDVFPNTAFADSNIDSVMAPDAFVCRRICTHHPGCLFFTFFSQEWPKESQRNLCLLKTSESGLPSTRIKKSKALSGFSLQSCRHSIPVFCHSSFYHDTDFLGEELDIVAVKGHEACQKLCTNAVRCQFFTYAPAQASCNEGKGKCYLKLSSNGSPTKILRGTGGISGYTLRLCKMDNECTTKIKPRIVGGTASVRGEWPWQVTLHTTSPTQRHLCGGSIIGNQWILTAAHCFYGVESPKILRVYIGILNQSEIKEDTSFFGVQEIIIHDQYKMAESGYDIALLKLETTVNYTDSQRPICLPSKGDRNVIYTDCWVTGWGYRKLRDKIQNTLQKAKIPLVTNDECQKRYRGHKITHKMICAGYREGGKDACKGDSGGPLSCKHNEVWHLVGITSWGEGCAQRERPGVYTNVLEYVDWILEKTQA

B1: NOV1401 (human IgG1/lambda antibody with D265A and P329A in the Fc) (antibody, V domains shown)
VH: QVQLLESGGGLVQPGGSLRLSCAASGFTFSTAAMSWVRQAPGKGLEWVSGISGSGSSTYYADSVKGRFTISRDNSKNTLYLQMNSLRAEDTAVYYCARELSYLYSGYYFDYWGQGTLVTVSS
VL: QSVLTQPPSASGTPGQRVTISCSGSSSNIGSNDVSWYQQLPGTAPKLLIYKNYNRPSGVPDRFSGSKSGTSASLAISGLQSEDEADYYCSAWDQRQFDVVFGGGTKLTVLG
notes: also called NOV1401-IgG; NOV1401-Antibody
In the case of B1, the “IC50, inhibition of the enzymatic activity of full length human FXIa (cleavage of the fluorescent peptide D-Leu-Pro-Arg*Rh110-D-Pro)” value in [1] was roughly 0.16 nM. Further, the “IC50, inhibition of thrombin generation in the TGA with pooled human plasma” value in the experiment with human FXI zymogen [2] was 24 nM. In addition, the Kd is 0.0047 nM in [3]; 0.0013 nM with human FXI zymogen [4]; 0.005 nM in [5]; 0.0125 nM in [6]; 21 nM in [7]. Also, the koff (usually a measure of how fast the partners let go of each other) in experiment [7] was 0.00088 s⁻¹. In addition, the kon – broadly, a measure of how fast the partners come together – in [7] was 42000 M⁻¹ s⁻¹.

B2: NOV1401-Fab (Fab, V domains shown)
VH: B1 VH
VL: B1 VL
notes: also called Fab of the NOV1401 antibody; Fab portion of NOV1401
As to B2, the “fold higher affinity than to the activated FXI” value with human FXI zymogen [8] stood at 5 fold. Further, the “fold higher affinity than to the catalytic domain” value was 66 fold in experiment [9] and 300 fold with human FXI zymogen [10]. Further, the values for the Kd (in [11]; in the experiment with human FXI zymogen [12]; in experiment [13]) were 0.305 nM, 0.062 nM and 19 nM, respectively. The koff in experiment [13] amounted to 0.00061 s⁻¹. In [13], this molecule gave a kon of 32000 M⁻¹ s⁻¹.
